According to paper PMC4155600 (Journal of nucleic acids investigation, 2013):
Like-named read-outs stand apart in the source and are kept apart here.

Legend:
native gel or EMSA = biological target: the molecule itself; test: native gel or EMSA
SpPot1-DBD [1] = biological target: T1, SpPot1-DBD (Schizosaccharomyces pombe, UniProt O13988 1-389); test: EMSA
T1 sequence: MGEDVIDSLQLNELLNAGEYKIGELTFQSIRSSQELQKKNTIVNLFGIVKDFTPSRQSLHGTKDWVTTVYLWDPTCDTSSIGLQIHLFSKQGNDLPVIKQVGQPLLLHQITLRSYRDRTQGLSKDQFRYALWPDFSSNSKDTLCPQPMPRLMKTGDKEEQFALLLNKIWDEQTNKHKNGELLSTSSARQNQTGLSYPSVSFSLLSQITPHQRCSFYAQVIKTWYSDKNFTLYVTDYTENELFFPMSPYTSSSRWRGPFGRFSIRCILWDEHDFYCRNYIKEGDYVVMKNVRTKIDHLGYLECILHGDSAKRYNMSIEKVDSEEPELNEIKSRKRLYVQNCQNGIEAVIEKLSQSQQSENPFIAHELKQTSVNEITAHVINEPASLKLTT

SpPot1 [2] = biological target: T2, SpPot1 (Schizosaccharomyces pombe, UniProt O13988 1-555)
T2 sequence: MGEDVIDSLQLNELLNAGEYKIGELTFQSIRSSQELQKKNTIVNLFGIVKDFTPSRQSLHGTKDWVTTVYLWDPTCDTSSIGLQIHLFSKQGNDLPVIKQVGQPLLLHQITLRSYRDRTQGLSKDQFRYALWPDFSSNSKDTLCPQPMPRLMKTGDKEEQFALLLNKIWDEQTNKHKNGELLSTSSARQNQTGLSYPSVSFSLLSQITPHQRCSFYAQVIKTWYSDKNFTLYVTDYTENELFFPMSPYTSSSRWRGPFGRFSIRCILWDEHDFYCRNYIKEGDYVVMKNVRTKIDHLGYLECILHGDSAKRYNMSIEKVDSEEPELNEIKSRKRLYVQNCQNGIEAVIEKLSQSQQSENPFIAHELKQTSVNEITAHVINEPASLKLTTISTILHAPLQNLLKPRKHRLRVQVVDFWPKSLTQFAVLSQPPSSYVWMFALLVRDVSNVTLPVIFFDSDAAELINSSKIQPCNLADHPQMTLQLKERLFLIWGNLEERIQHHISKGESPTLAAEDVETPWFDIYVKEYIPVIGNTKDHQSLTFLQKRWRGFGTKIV

SpPot1 [3] = biological target: T2, SpPot1; test: filter binding
SpPot1 [4] = biological target: T2, SpPot1; test: filter binding; remark: listed apart in the source
SpPot1 [5] = biological target: T2, SpPot1; test: filter binding; remark: listed apart in the source
SpPot1 [6] = biological target: T2, SpPot1; test: filter binding; remark: listed apart in the source
Cdc13 = biological target: T3, Cdc13 (Saccharomyces cerevisiae, UniProt P32797 1-924); test: EMSA
T3 sequence: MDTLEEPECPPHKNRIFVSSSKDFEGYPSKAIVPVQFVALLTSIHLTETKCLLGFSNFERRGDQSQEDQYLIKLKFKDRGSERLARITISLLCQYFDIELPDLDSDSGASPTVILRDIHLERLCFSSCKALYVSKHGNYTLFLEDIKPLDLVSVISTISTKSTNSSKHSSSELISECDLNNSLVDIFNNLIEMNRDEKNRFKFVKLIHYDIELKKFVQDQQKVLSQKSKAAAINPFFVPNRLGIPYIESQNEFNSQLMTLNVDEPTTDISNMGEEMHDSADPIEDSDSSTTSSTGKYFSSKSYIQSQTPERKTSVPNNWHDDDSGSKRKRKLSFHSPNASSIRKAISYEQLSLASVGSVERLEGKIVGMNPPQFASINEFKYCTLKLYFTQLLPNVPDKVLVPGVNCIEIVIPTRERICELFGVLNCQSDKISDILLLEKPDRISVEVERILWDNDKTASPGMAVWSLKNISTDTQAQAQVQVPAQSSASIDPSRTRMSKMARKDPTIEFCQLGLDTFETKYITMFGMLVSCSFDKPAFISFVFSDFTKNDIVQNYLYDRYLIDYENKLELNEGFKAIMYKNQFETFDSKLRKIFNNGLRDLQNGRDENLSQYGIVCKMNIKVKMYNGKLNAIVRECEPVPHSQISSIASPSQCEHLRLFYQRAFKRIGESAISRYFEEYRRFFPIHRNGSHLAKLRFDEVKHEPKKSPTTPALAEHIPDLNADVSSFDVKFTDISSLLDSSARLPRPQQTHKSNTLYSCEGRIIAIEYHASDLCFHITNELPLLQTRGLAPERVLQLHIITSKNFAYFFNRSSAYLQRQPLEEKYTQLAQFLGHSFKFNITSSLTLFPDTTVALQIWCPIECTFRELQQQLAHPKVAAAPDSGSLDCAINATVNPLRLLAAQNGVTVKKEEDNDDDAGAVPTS

SpPot1-DBD [7] = biological target: T1, SpPot1-DBD; test: EMSA; remark: listed apart in the source
SpPot1-DBD [8] = biological target: T1, SpPot1-DBD; test: EMSA; remark: listed apart in the source
SpPot1-DBD [9] = biological target: T1, SpPot1-DBD; test: EMSA; remark: listed apart in the source
SpPot1-DBD [10] = biological target: T1, SpPot1-DBD; test: EMSA; remark: listed apart in the source
SpPot1-DBD [11] = biological target: T1, SpPot1-DBD; test: EMSA; remark: listed apart in the source
SpPot1-DBD [12] = biological target: T1, SpPot1-DBD; test: EMSA; remark: listed apart in the source

B1: Saccharomyces cerevisiae Cdc13 (1–924), full-length protein (natural protein, UniProt P32797 1-924, looked up)
chain: T3 sequence
stoichiometry N (native gel or EMSA): 2

GGTTA (ssDNA) [d(GGTTA) 5mer]
Kd (SpPot1-DBD [1]): ~10000 pM

GGTTACGGTTAC (ssDNA) [12mer]
Kd (SpPot1 [2]): 6.7 ± 0.9 pM | Kd (SpPot1 [3]): 14 pM | Kd (SpPot1 [4]): 700 pM | Kd (SpPot1 [5]): 100 pM | Kd (SpPot1 [6]): 130 pM

GTGTGGGTGTG (ssDNA) [Tel11]
Kd (Cdc13): 13.4 ± 0.8 pM

GGTTACGGTTACGGT (ssDNA) [15mer]
Kd (SpPot1 [2]): 5.2 ± 0.5 pM | Kd (SpPot1-DBD [7]): 5 pM | Kd (SpPot1-DBD [8]): 1.6 pM | Kd (SpPot1-DBD [9]): 4.9 ± 0.8 pM | Kd (SpPot1-DBD [10]): 10.3 pM | Kd (SpPot1-DBD [11]): 1.5 pM | Kd (SpPot1-DBD [12]): 4.2 pM
